# Data published in IntAct's records for PubMed 12221107.
# B1: AP-2 complex subunit beta (Homo sapiens), P63010 (parent)
# chain: MTDSKYFTTNKKGEIFELKAELNNEKKEKRKEAVKKVIAAMTVGKDVSSLFPDVVNCMQTDNLELKKLVYLYLMNYAKSQPDMAIMAVNSFVKDCEDPNPLIRALAVRTMGCIRVDKITEYLCEPLRKCLKDEDPYVRKTAAVCVAKLHDINAQMVEDQGFLDSLRDLIADSNPMVVANAVAALSEISESHPNSNLLDLNPQNINKLLTALNECTEWGQIFILDCLSNYNPKDDREAQSICERVTPRLSHANSAVVLSAVKVLMKFLELLPKDSDYYNMLLKKLAPPLVTLLSGEPEVQYVALRNINLIVQKRPEILKQEIKVFFVKYNDPIYVKLEKLDIMIRLASQANIAQVLAELKEYATEVDVDFVRKAVRAIGRCAIKVEQSAERCVSTLLDLIQTKVNYVVQEAIVVIRDIFRKYPNKYESIIATLCENLDSLDEPDARAAMIWIVGEYAERIDNADELLESFLEGFHDESTQVQLTLLTAIVKLFLKKPSETQELVQQVLSLATQDSDNPDLRDRGYIYWRLLSTDPVTAKEVVLSEKPLISEETDLIEPTLLDELICHIGSLASVYHKPPNAFVEGSHGIHRKHLPIHHGSTDAGDSPVGTTTATNLEQPQVIPSQGDLLGDLLNLDLGPPVNVPQVSSMQMGAVDLLGGGLDSLVGQSFIPSSVPATFAPSPTPAVVSSGLNDLFELSTGIGMAPGGYVAPKAVWLPAVKAKGLEISGTFTHRQGHIYMEMNFTNKALQHMTDFAIQFNKNSFGVIPSTPLAIHTPLMPNQSIDVSLPLNTLGPVMKMEPLNNLQVAVKNNIDVFYFSCLIPLNVLFVEDGKMERQVFLATWKDIPNENELQFQIKECHLNADTVSSKLQNNNVYTIAKRNVEGQDMLYQSLKLTNGIWILAELRIQPGNPNYTLSLKCRAPEVSQYIYQVYDSILKN
# partner: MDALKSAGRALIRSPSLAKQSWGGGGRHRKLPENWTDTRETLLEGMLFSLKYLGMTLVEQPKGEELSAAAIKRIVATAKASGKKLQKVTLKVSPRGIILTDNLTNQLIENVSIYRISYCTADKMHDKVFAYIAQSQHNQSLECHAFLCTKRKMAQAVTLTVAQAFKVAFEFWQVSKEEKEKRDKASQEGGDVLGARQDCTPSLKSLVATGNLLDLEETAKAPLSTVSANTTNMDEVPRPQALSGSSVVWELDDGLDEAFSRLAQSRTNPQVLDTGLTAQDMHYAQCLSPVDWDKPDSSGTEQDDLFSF
# B2: Low density lipoprotein receptor adapter protein 1 (Homo sapiens), Q5SW96 (parent)
# chain: B1 partner
# Variants of: B1
# Conditions: with arh_human LDLRAP1, Q5SW96
row,effect of a mutation on the interaction,Variant
1,disrupting interaction strength,E849A
2,decreasing interaction strength,E902A

# Variants of: B2
# Conditions: with clh1_bovin CLTC
row,effect of a mutation on the interaction,Variant
1,disrupting interaction strength,MDALKSAGRALIRSPSLAKQSWGGGGRHRKLPENWTDTRETLLEGMLFSLKYLGMTLVEQPKGEELSAAAIKRIVATAKASGKKLQKVTLKVSPRGIILTDNLTNQLIENVSIYRISYCTADKMHDKVFAYIAQSQHNQSLECHAFLCTKRKMAQAVTLTVAQAFKVAFEFWQVSKEEKEKRDKASQEGGDVLGARQDCTPSLKSLVATGNAADLEETAKAPLSTVSANTTNMDEVPRPQALSGSSVVWELDDGLDEAFSRLAQSRTNPQVLDTGLTAQDMHYAQCLSPVDWDKPDSSGTEQDDLFSF [L212A;L213A]
2,disrupting interaction strength,MDALKSAGRALIRSPSLAKQSWGGGGRHRKLPENWTDTRETLLEGMLFSLKYLGMTLVEQPKGEELSAAAIKRIVATAKASGKKLQKVTLKVSPRGIILTDNLTNQLIENVSIYRISYCTADKMHDKVFAYIAQSQHNQSLECHAFLCTKRKMAQAVTLTVAQAFKVAFEFWQVSKEEKEKRDKASQEGGDVLGARQDCTPSLKSLVATGNLLALAETAKAPLSTVSANTTNMDEVPRPQALSGSSVVWELDDGLDEAFSRLAQSRTNPQVLDTGLTAQDMHYAQCLSPVDWDKPDSSGTEQDDLFSF [D214A;E216A]

# Variants of: B2
# Conditions: with ap2b1_human AP2B1, P63010
row,effect of a mutation on the interaction,Variant
1,disrupting interaction strength,MDALKSAGRALIRSPSLAKQSWGGGGRHRKLPENWTDTRETLLEGMLFSLKYLGMTLVEQPKGEELSAAAIKRIVATAKASGKKLQKVTLKVSPRGIILTDNLTNQLIENVSIYRISYCTADKMHDKVFAYIAQSQHNQSLECHAFLCTKRKMAQAVTLTVAQAFKVAFEFWQVSKEEKEKRDKASQEGGDVLGARQDCTPSLKSLVATGNLLDLEETAKAPLSTVSANTTNMDEVPRPQALSGSSVVWELDDGLDEAFSRLAQSATNPQVLDTGLTAQDMHYAQCLSPVDWDKPDSSGTEQDDLFSF [R266A]
